Patent US20260049134A1 (UNIVERSITY OF FLORIDA RESEARCH FOUNDATION, published 2026)
Values belong to the binder of their own block, whether it stands above or below them.

Key:
[1] = biological target: T1, GARS, endogenous in H929 multiple myeloma cells (human, UniProt P41250 37-739, limits assumed); experiment: flow cytometry, H929 + CDH18 siRNA; None 0.19; surface target GARS putative
T1 construct: Native protein pulled down from H929 lysates; also called Glycyl-tRNA synthetase; GlyRS
T1 sequence: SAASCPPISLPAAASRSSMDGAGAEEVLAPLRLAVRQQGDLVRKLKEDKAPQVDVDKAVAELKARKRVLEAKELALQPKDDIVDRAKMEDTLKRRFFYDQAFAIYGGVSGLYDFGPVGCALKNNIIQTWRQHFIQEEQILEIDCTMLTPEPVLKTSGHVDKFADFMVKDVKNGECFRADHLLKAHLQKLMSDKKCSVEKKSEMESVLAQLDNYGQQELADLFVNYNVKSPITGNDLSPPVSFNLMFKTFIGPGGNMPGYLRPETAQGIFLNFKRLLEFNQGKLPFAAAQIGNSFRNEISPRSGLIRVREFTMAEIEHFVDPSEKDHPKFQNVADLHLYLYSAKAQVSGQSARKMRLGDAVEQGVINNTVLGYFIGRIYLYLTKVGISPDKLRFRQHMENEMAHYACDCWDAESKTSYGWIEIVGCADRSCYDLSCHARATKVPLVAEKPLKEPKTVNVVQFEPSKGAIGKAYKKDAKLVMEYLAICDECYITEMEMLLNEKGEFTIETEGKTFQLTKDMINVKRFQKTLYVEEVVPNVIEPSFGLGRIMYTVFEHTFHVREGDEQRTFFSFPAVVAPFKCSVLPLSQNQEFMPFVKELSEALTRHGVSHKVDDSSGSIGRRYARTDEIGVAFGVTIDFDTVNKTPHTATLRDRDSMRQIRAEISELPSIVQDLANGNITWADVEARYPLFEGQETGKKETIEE

SLAMF7 = biological target: T2, SLAMF7; experiment: ELISA on coated SLAMF7-StrepTag
T2 construct: coated protein in the ELISA; also called SLAMF7-StrepTag
T2 chain: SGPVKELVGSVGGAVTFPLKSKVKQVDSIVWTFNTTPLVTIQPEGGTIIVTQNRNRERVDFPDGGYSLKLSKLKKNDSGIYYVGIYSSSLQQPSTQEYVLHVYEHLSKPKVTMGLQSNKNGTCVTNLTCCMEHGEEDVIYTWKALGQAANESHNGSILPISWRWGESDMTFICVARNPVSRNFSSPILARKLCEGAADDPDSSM
Protocol: Recombinant purified ECDs (50-150 ng) of each putative target protein were coated, incubated with 150 ng of the indicated primary antibody, and binding was detected using a peroxidase-conjugated anti-human Fab secondary antibody. Heatmap represents averages of technical triplicates. (8B) Target validation via siRNA knockdown. H929 cells were transfected with siRNA pools targeting the putative antibody targets ICAM1, CADM1, and PTPRG. Cells were then subjected to cognate IgG binding analysis via flow cytometry. (NT, non-targeting siRNA).
ELISA ELISA was conducted as described previously. Briefly, 50-150 ng of antigen was coated overnight in half-area 96-well plates at 4° C., blocked with 3% BSA at 37° C. for 1 h, and 150 ng of chimeric rabbit/human IgG1 was added, incubating for 2 h at 37° C. […] After incubating at 37° C. for 15 min-1 h (depending on intensity of controls), data were acquired using a SpectraMax M5 plate reader (Molecular Devices).

[2] = biological target: T1, GARS, endogenous in H929 multiple …; experiment: flow cytometry, H929 + NT Green siRNA; None 1.35; surface target GARS putative
[3] = biological target: T1, GARS, endogenous in H929 multiple …; experiment: flow cytometry, H929 + PTPRG siRNA; None 490; surface target GARS putative
[4] = biological target: T1, GARS, endogenous in H929 multiple …; experiment: flow cytometry, H929 + PTPRG siRNA; None 2.13; surface target GARS putative
[5] = biological target: T1, GARS, endogenous in H929 multiple …; experiment: flow cytometry, H929 + GARS siRNA (siRNA against the putative target); None 0.2

Cells stained (%) [1]: 99.3%
Cells stained (%) [2]: 99.7%
mAb binding (MFI) [3]: 630000
Cells stained (%) [4]: 100%
Cells stained (%) [5]: 99.4%
B1: HW-81 chimeric rabbit-human IgG1 LA/LA/PG (antibody, V domains shown)
VH: QKQLVESGGGLVTPGGTLTLTCTVSGFSLSSNGVSWVRQAPGKGLEYIGLIRSIGSTYYATWAKGRFTISKTSTTVDLKITSPTTEDTATYFCARGGYRNGFKLWGPGTLVTVSS
VL: QPVLTQSPSVSAALGASAKLTCTLSSAHKTYYIEWYQQQHPGKAPRYLMQLQSDGSYTKGTGVPDRFSGSSSGADRYLIISSVQAEDEADYICGVIDSAVYVFGGGTQLTVTG
notes: Fc-silenced (L234A/L235A/P329G) IgG1, lambda; Alexa Fluor 647-labeled in single-step flow cytometry; Cluster C-45
binding result (SLAMF7): no binding (tested: 150 ng IgG1 per well)

Cells stained (%) [1]: 99.4%
Cells stained (%) [2]: 97.9%
mAb binding (MFI) [3]: 23200
Cells stained (%) [4]: 97.3%
Cells stained (%) [5]: 98.5%
B4: HW-45 chimeric rabbit-human IgG1 LA/LA/PG (antibody, V domains shown)
VH: QKQLVESGGRLVTPGTPLTLTCTVSGFSLSSYAMGWFRQAPGKGLEWIGIINSYGSTYYASWAKGRFTISKTSTTVDLKITSPTTEDTATYFCGRRIGSARFDPWGPGTLVTVSS
VL: SFVLTQPASVQVNLGQTVSLTCTADTLSRSYASWYQQKPGQAPVLLIYRDTRRPSGVPDRFSGSSSGNTATLTISGAQAGDEADYYCATSDGSGSSYRLVFGGGTQLTVTG
notes: Fc-silenced (L234A/L235A/P329G) IgG1, lambda; Alexa Fluor 647-labeled in single-step flow cytometry; Prototype of cluster C-45

The remaining lines, values behind:

B2: HW-8 chimeric rabbit-human IgG1 LA/LA/PG (antibody, V domains shown)
VH: QSLEESGGRLVTPGTPLTLTCTVSGFSLSSYAMSWVRQAPGKGLEWIGAISTGGSTTYASWAKGRFTISKTSSTTVDLKMTSLTTEDTATYFCVRHFRLWGPGTLVTISS
VL: QVLTQTPSSVSAAVGGTVTIKCQASQSIGSALAWFQQKPGQRPKLLIYRASNLASGVPSRFKGSGSGTEFALTISGVQREDAATYYCLGGAAAVWAFGAGTNVEIKR
notes: Fc-silenced (L234A/L235A/P329G) IgG1, kappa; Alexa Fluor 647-labeled in single-step flow cytometry; Cluster C-45
Cells stained (%) [1]: 99.4%
binding result (SLAMF7): no binding (tested: 150 ng IgG1 per well)
Cells stained (%) [2]: 86.6%
mAb binding (MFI) [3]: 13600
Cells stained (%) [4]: 84.3%
Cells stained (%) [5]: 99%

B3: HW-16 chimeric rabbit-human IgG1 LA/LA/PG (antibody, V domains shown)
VH: QSLEESGGRLVTPGTPLTLTCTASGFSLSSYAMSWVRQAPGKGLEWIGTMPTGGGTYYASWAKGRFTISKTSTTVDLQITSPTTEDTATYFCAKHWNIWGPGTLVTISS
VL: DIVLTQTPSSTSTAVGDTVTINCRASQSIGRNLAWFQQKPGQPPKLLIYRASNLASGVPSRFKGSGSRTQFTLTISGVQREDAATYYCLGSYSSSDTAFGGGTELEILR
notes: as for B2
Cells stained (%) [1]: 98.6%
Cells stained (%) [2]: 99.1%
mAb binding (MFI) [3]: 41600
Cells stained (%) [4]: 98.2%
Cells stained (%) [5]: 99.1%
